This is an account of results in FireProtDB (doi:10.1016/s0022-2836(02)00737-4).

Values joined by “and” are separate entries in the source; they are usually repeats but may differ in a detail not shown here. Identical values can stand only once.

Sequences and labels used below:
B1: Tryptophan synthase alpha chain, P0A877 (parent)
chain: MERYESLFAQLKERKEGAFVPFVTLGDPGIEQSLKIIDTLIEAGADALELGIPFSDPLADGPTIQNATLRAFAAGVTPAQCFEMLALIRQKHPTIPIGLLMYANLVFNKGIDEFYAQCEKVGVDSVLVADVPVEESAPFRQAALRHNVAPIFICPPNADDDLLRQIASYGRGYTYLLSRAGVTGAENRAALPLNHLVAKLKEYNAAPPLQGFGISAPDQVKAAIDAGAAGAISGSAIVKIIEQHINEPEKMLAALKVFVQPMKAATRS

Variants of B1 are the subject of this data set. The settings on record: Escherichia coli (strain K12); pH 7.8; 25 °C; Urea; CD; potassium phosphate 10 mM; transition: 3; structure 1WQ5; whole UniProt chain shown.

Regarding P28G, the denaturant m value was 2.15 kcal/mol/M and 1.18 kcal/mol/M; the “denaturant midpoint (higher = more stable)” value was 2.08 M and 4.1 M; the unfolding free energy was 4.47 kcal/mol and 4.84 kcal/mol.
Regarding P28A, the denaturant m value was 1.48 kcal/mol/M and 1.04 kcal/mol/M; the “denaturant midpoint (higher = more stable)” value is 1.36 M and 3.66 M; the unfolding free energy is 2.01 kcal/mol and 3.81 kcal/mol.
